B1: H1H6959N2 (antibody, human IgG1, V domains shown)
VH: EVQLVESGGGLVQPGRSLRLSCAASGFTFDDYAMHWVRQAPGKGLEWVSGISWHSGIIGYADSVKGRFTISRDNAKNSLYLQMNSLRTEDAALYYCAKIGSYFYFDSWGQGTLVTVSS
VL: EIVLTQSPGTLSLSPGERATLSCRASQSVSSNYLAWYQQKPGQAPRLLIYGASSRATGIPDRFSGSGSGTDFTLTISRLEPEDFAVYYCQQFGSSGYTFGQGTNLEIK
notes: also called H2M6959N2
B2: H1H6797P (antibody, human IgG1, V domains shown)
VH: EVQLVESGGGLVQPGGSLRLSCIVSGFTFSGSWMSWVRQLPGKGLEWVANIKEDGSDSYYVDSVEGRFTISRDNAKSSLYLQMNSLRVDDTAVYFCARARTVPLHYWGQGTLVTVSS
VL: DIQMTQSPSTLSASVGDRVTITCRASQSINIWLAWYQQKPGKAPKLLIYRASYLESGVPSSFAGGGSGTEFTLTISSLQPDDFGTYYCQHYNSYPFTFGQGTKLEIK
notes: human IgG1 Fc (H1H)
B3: H1H6960N (antibody, human IgG1, V domains shown)
VH: EVQLVESGGGLVKPGGSLRLSCAASGITFSSYSMNWVRQAPGKGLEWVSSISTRSSLIHYADSVKGRFTISRDNAKNSLYLQMNSLRDEDTAVYYCARWDAAAAFDYWGQGTLVIVSS
VL: DIQLTQSPSFLSASVGDRVTITCWASQGISSYLAWYQQKPGKAPKLLIYVASTLQSGVPSRFSGSGSGTEFTLTISSLQPEDFATYFCQQLNSYPLTFGGGTKVEIK
notes: also called H2M6960N
B4: H1H6790P (antibody, human IgG1, V domains shown)
VH: EVQLVESGGGLVQPGGSLRLSCAASGFTFSSYAMTWVRQAPGKGLEWVSAITGSVGNTYYADSVKGRFTISRDNSKNTLYLQMNSLGAEDTAEYYCAKGAGMTTNWYLDLWGRGTLVTVSS
VL: DIVMTQSPDSLAVSLGARATINCKSSQSVLYSSNNQNYLTWYQQKPGQPPKLLIKWASTRESGVPDRFSGSGSGTDFTLTISSLQAEDVAVYYCQQYASSPYTFGQGTKLEIK
notes: human IgG1 Fc (H1H)
B5: H1H6966N (antibody, human IgG1, V domains shown)
VH: QVQLVQSGAEVQKPGASVKVSCKVSGYTLTALSIHWVRQAPGKGLEWMGNFDPGDGETIHAQKFQGRVTMTGDTSTDTAYMELSSLRSEDTAVYYCVGVTFDYWGQGTLVTVSS
VL: EIVMTQSPATLSVSPGERATLSCRASQSVASNLAWYQQKPGQAPRLLLYGASTRATGIPARFSGSGSGTEFTLTISSLQSEDFALYYCQHYNNWPLTFGGGTKVEIK
notes: also called H2M6966N
B6: H1H6804P (antibody, human IgG1, V domains shown)
VH: QVTLKESGPVLVKPTQTLSLTCTVSGFSLSDAGMGVSWIRQPPGKALEWLAHIFSNDGKSYSTSLKSRLTISKDTSKRQVVLTMTNMDPVDTATYYCARIRTGTYSLYLDYWGQGTLVTVSS
VL: DIQMTQSPSSLSASVGDRVTITCRASQSINSYLNWYQQKPGKAPKLLLYFASSLQSGVPSRFSGSGSGTDFTLTISSLQPEDFASYYCQESYSTPWTFGQGTKVEIK
notes: human IgG1 Fc (H1H)

The binders below were run against T1, mouse PRLR construct with an HA tag on HEK293/mPRLR cells (mouse, UniProt Q08501 20-608) (assay: FACS on HEK293/mPRLR cells).
T1 construct: whole, on cells; stably transfected into HEK293
T1 sequence (looked up): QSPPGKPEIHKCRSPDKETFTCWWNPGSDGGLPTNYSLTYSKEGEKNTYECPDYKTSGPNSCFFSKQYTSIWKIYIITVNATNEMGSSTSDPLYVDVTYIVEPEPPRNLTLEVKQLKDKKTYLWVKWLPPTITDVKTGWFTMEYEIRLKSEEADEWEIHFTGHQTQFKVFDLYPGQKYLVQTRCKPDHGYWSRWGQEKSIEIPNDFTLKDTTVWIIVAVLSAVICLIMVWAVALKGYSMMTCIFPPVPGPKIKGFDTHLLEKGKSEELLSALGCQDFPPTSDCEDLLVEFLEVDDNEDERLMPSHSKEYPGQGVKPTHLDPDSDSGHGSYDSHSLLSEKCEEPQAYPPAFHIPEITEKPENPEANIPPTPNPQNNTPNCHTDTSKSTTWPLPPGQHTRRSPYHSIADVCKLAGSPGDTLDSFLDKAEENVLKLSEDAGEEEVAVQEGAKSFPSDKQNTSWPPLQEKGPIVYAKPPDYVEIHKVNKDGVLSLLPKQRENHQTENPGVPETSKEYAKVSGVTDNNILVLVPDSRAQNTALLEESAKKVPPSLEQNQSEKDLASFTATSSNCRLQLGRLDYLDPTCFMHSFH
With B1 the “FACS Cell Binding (Fold Above Background)” value was 2 fold. For B2, the “FACS Cell Binding (Fold Above Background)” value was 2 fold. With B3 the “FACS Cell Binding (Fold Above Background)” value was 1 fold. In the case of B4, the “FACS Cell Binding (Fold Above Background)” value is reported as 1 fold. In the case of B5, the “FACS Cell Binding (Fold Above Background)” value is reported as 1 fold. With B6 the “FACS Cell Binding (Fold Above Background)” value was 1 fold.

These binders were tested against T2, human PRLR construct with an HA tag on HEK293/hPRLR cells (human, UniProt P16471 25-622) (assay: FACS on HEK293/hPRLR cells).
T2 sequence: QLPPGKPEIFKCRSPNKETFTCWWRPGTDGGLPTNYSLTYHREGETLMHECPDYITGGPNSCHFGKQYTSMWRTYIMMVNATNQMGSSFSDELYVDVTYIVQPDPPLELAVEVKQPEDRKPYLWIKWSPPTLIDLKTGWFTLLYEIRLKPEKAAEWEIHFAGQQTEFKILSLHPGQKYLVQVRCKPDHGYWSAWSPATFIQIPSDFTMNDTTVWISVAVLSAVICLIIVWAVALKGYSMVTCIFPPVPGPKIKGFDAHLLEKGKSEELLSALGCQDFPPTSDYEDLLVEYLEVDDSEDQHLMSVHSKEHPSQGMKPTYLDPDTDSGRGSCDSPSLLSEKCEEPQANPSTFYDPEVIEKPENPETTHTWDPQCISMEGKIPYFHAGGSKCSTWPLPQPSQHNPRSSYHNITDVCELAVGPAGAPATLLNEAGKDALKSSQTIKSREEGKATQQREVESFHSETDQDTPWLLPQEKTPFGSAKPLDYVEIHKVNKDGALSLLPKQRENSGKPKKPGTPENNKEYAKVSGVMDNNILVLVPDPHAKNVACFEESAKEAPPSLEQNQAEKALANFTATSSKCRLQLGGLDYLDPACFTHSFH
B1 was tested, and the “FACS Cell Binding (Fold Above Background)” value was 6 fold. In the case of B2, the “FACS Cell Binding (Fold Above Background)” value is reported as 1 fold. In the case of B3, the “FACS Cell Binding (Fold Above Background)” value is reported as 29 fold. B4 was tested, and the “FACS Cell Binding (Fold Above Background)” value was 37 fold. With B5 the “FACS Cell Binding (Fold Above Background)” value was 29 fold. In the case of B6, the “FACS Cell Binding (Fold Above Background)” value is reported as 1 fold.

Biological target: T3, mfPRLR.mmh (soluble monomeric macaca fascicularis PRLR) (macaca fascicularis)
T3 construct: soluble monomeric PRLR protein; also called macaca fascicularis (mf) PRLR.mmh; monkey PRLR
T3 chain: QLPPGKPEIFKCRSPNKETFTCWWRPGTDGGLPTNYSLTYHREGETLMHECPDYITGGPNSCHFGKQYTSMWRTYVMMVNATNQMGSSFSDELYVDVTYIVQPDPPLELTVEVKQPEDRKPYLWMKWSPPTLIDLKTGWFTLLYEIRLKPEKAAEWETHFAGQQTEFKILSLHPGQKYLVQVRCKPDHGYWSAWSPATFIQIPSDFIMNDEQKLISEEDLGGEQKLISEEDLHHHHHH
Test: SPR (Biacore), antibody capture, 37 C
Description: Measurements were conducted on a T200 Biacore instrument. Kinetic association (kₐ) and dissociation (kd) rate constants were determined by processing and fitting the data to a 1:1 binding model using Scrubber 2.0 curve fitting software.
B1 was tested, and the Kd was 370 nM, the “T 1/2” value was 0.7 min and the koff was 0.0165 s⁻¹. For the same binder, the kon was 44600 M⁻¹ s⁻¹. For B2, the Kd was 9.9 nM, the “T 1/2” value was 1 min and the koff was 0.00906 s⁻¹. It also gave a kon of 914000 M⁻¹ s⁻¹. B3 was tested, and the Kd was 14.9 nM, the “T 1/2” value was 9 min and the koff was 0.00128 s⁻¹. The kon was 86400 M⁻¹ s⁻¹. For B4, the Kd was 5.22 nM, the “T 1/2” value was 4 min and the koff was 0.00321 s⁻¹. For the same binder, the kon was 615000 M⁻¹ s⁻¹. B5 was tested, and the Kd was 0.982 nM, the “T 1/2” value was 9.6 min and the koff was 0.0012 s⁻¹. The kon was 1.22e+06 M⁻¹ s⁻¹. For B6, the Kd was 9.35 nM, the “T 1/2” value was 3 min and the koff was 0.00426 s⁻¹. For the same binder, the kon was 455000 M⁻¹ s⁻¹.
